In the first experiment the target is T1, HLA-A*03:01 (human).
T1 construct: Peptide-receptive MHC class I monomer in the UV-ligand exchange assay
Briefly: UV peptide exchange, anti-b2m ELISA; exchange yield grade. An excerpt: (§1) Candidate peptides for T cell based therapies according to the present invention were further tested for their MHC binding capacity (affinity). The individual peptide-MHC complexes were produced by UV-ligand exchange, where a UV-sensitive peptide is cleaved upon UV-irradiation and exchanged with the peptide of interest as analyzed. Only peptide candidates that can effectively bind and stabilize the peptide-receptive MHC molecules prevent dissociation of the MHC complexes. To determine the yield of the exchange reaction, an ELISA was performed based on the detection of the light chain (β2m) of stabilized MHC complexes. The assay was performed as generally described in Rodenko et al. (Rodenko et al., 2006).
(§2) 96 well MAXISorp plates (NUNC) were coated over night with 2 μg/ml streptavidin in PBS at room temperature, washed 4× and blocked for 1 h at 37° C. in 2% BSA containing blocking buffer. […] Peptide-MHC monomers of the UV-exchange reaction were diluted 100-fold in blocking buffer. Samples were incubated for 1 h at 37° C., washed four times, incubated with 2 μg/ml HRP conjugated anti-β2m for 1 h at 37° C., washed again and detected with TMB solution that is stopped with […]. Absorption was measured at 450 nm.
On the technique in general: In an ELISA, binding on a coated surface is turned into a signal by an enzyme label.
Take LIAGLIFLK: the peptide exchange yield fell in the range of 50 to 75%.
Still for that read-out and setting: the figure for TLLSFKTVLFK is not below 75%; for SVFSLVHLFDK it is not below 75%.
On to KTIDLVIVR, for which the peptide exchange yield is not below 75%.
The molecule SLATAISAK gave a peptide exchange yield of 50 to 75%.
Still for that read-out and setting: the figure for ILQLITVNR is 50 to 75%; for GSLQTLPPK it is 50 to 75%; for VVRASSGLK it is 50 to 75%.
Still for that read-out and setting: the figure for RVIEVVMNSK is not below 75%; for IIVPSFYK it is 50 to 75%; for KVGAVVHLK it is 50 to 75%.
For the molecule MVNWSLTNK, the peptide exchange yield is not below 75%.
Still for that read-out and setting: under MIFSGVFLR stands not below 75%.
Still for that read-out and setting: under VIFLHQPPK stands not below 75%; under SLFPYFLNK, not below 75%.
On the same count and under the same terms, under ATLQAVTLYKK stands not below 75%; under AILVPQPPK, 50 to 75%; under SLFGGLFTR, not below 75%.
The molecule IVFLLQQGEK came in with a peptide exchange yield of 50 to 75%.
The same measure, in the same setting: the figure for GSCSFALSR is not below 75%; for ASAIPAGAK it is 50 to 75%.
KIMEILNLK gave a peptide exchange yield not below 75%.
Still for that read-out and setting: under VIYNQTLMK stands not below 75%; under AVVSHFILY, 50 to 75%.
The same measure, in the same setting: under TTLENLPQK stands 50 to 75%; under GTVFVLLSK, 20 to 50%.
As for AVLGALLRH, the peptide exchange yield was not below 75%.
Still for that read-out and setting: the figure for ILAPPAILK is not below 75%.
The same measure, in the same setting: the figure for RTLPLEGSPK is 50 to 75%; for LLFKGLMWK it is not below 75%; for RILEVVRQPK it is not below 75%.
Turning to AVFVNWEQTKK, the peptide exchange yield is not below 75%.
On the same count and under the same terms, under GTFIAPVMK stands not below 75%; under TVATQVATSK, 50 to 75%.
As for AVFLGNPSNQK, the peptide exchange yield was not below 75%.
Same read-out and setting: the figure for GVCSTLTIK is not below 75%.
The same measure, in the same setting: under AILAPPAILK stands not below 75%; under ATNSFLLIK, not below 75%; under RLCPAAPTGK, not below 75%.
Still for that read-out and setting: the figure for LIYIPTNSIYK is not below 75%.
In turn, ETYGTFVLR displayed a peptide exchange yield of 50 to 75%.
Same read-out and setting: under ILAASFQAR stands 50 to 75%; under STQSSLLYLK, 50 to 75%; under SVISVLTTPK, not below 75%.
The same measure, in the same setting: under SVYMATTLK stands not below 75%; under SMNSKALRWK, 50 to 75%.
As for ALAQGANLK, the peptide exchange yield lay in the range of 50 to 75%.
The same measure, in the same setting: the figure for TTAAVYILK is 50 to 75%; for SLIPIVPFKS it is 20 to 50%; for KVLVDFLLK it is 50 to 75%.
The same measure, in the same setting: the figure for LALLGAPPPK is 20 to 50%.
Still for that read-out and setting: the figure for AILLPQLPK is not below 75%.
In the case of RIVTYIVAK, the peptide exchange yield was 50 to 75%.
Still for that read-out and setting: the figure for LSGPVTFLR is 50 to 75%; for RLYSGSSFLY it is not below 75%; for TVTSAIVNR it is 50 to 75%.
For the molecule KLLLLSSVK, the peptide exchange yield fell in the range of 50 to 75%.
Regarding KLIAGLIFLK, the peptide exchange yield lay in the range of 50 to 75%.
Still for that read-out and setting: the figure for MLSAQFILK is not below 75%; for MTFVPLLAR it is not below 75%; for MTYQQPFSNR it is not below 75%.

In the next experiment the target is T2, HLA-B*07:02 (human).
T2 construct: Peptide-receptive monomer in the UV-ligand exchange assay
Described as above.
Excerpt: as §1, §2
SPVETRSLL came in with a peptide exchange yield of 50 to 75%.

(Values after patent US20240358755A1 (IMMATICS BIOTECHNOLOGIES, published 2024).)
